Test results: patent US20230287372

Columns and labels:
Test in all cases: cell_activity
SeqID63 (WO2019/030695) = details: PAM TTTA
SuCms1 = details: PAM TTTA
[1] = tested on: T1, BEC10 (Artificial (engineered chimeric Cms1-like CRISPR nuclease)); details: no-spacer negative control; 30 C
T1 sequence: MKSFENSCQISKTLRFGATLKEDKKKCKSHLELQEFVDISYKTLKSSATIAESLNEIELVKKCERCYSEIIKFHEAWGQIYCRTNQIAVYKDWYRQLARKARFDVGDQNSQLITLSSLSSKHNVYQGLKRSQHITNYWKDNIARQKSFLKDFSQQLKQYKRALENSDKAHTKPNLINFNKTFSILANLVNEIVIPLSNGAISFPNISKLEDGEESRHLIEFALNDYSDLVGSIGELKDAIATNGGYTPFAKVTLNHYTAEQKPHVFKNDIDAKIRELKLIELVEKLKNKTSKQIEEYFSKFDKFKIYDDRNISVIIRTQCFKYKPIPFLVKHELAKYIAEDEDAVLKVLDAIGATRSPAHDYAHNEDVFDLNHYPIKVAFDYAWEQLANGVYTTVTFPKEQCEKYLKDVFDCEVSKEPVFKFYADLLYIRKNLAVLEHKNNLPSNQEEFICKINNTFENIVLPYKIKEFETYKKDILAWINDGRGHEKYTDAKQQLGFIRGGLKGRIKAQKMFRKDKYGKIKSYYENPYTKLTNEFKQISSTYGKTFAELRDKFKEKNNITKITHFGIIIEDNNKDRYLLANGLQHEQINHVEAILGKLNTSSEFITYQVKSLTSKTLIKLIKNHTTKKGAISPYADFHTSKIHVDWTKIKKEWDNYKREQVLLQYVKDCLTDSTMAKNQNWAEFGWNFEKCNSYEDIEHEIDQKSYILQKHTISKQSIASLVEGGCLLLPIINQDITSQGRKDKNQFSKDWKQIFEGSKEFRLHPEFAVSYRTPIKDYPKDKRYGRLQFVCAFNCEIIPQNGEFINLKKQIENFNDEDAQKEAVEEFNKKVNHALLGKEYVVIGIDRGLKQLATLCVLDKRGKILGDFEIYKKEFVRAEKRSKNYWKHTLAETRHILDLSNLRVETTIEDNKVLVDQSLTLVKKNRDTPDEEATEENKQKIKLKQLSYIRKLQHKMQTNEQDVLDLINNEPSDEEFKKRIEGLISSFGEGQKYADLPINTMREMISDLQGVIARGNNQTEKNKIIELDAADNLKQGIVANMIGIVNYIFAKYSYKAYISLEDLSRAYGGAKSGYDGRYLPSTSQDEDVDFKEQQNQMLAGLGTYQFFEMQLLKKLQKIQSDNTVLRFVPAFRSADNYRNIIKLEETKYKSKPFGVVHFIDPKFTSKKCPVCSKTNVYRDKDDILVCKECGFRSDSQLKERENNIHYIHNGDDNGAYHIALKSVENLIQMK

[2] = tested on: T2, BEC67 (Artificial (engineered chimeric Cms1-like CRISPR nuclease)); details: no-spacer negative control; 30 C
T2 sequence: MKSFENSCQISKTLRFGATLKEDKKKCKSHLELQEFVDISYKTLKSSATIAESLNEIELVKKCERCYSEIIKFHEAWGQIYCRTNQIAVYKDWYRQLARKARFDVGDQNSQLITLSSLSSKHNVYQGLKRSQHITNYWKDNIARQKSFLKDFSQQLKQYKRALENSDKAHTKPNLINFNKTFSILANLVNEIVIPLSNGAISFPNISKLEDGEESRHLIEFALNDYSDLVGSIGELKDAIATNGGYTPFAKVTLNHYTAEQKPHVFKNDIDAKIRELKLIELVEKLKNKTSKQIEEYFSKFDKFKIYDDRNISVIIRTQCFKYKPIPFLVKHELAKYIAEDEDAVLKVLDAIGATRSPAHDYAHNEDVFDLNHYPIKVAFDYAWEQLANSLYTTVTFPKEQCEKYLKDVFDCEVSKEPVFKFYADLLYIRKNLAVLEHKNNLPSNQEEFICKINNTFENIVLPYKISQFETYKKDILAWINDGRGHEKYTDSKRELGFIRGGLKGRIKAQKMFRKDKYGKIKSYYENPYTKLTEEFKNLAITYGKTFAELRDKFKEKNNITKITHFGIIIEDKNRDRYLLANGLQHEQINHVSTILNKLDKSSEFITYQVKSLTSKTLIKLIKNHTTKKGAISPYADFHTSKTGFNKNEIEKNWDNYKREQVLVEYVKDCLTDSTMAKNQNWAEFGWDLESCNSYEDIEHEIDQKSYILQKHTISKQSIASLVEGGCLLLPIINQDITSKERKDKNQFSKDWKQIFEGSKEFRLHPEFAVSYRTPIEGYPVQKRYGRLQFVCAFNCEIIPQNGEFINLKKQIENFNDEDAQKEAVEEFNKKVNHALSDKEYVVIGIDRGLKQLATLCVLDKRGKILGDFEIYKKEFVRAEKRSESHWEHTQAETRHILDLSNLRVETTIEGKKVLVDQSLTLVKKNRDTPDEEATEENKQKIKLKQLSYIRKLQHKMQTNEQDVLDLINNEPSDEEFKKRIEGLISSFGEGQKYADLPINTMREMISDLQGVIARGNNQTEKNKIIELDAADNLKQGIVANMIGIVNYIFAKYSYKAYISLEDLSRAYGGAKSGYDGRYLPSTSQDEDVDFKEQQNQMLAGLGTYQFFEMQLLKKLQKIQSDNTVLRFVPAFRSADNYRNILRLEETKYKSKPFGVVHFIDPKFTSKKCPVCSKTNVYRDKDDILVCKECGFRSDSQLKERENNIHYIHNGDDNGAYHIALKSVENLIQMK

[3] = tested on: T3, BEC85 (Artificial (engineered chimeric Cms1-like CRISPR nuclease)); details: no-spacer negative control; 30 C
T3 sequence: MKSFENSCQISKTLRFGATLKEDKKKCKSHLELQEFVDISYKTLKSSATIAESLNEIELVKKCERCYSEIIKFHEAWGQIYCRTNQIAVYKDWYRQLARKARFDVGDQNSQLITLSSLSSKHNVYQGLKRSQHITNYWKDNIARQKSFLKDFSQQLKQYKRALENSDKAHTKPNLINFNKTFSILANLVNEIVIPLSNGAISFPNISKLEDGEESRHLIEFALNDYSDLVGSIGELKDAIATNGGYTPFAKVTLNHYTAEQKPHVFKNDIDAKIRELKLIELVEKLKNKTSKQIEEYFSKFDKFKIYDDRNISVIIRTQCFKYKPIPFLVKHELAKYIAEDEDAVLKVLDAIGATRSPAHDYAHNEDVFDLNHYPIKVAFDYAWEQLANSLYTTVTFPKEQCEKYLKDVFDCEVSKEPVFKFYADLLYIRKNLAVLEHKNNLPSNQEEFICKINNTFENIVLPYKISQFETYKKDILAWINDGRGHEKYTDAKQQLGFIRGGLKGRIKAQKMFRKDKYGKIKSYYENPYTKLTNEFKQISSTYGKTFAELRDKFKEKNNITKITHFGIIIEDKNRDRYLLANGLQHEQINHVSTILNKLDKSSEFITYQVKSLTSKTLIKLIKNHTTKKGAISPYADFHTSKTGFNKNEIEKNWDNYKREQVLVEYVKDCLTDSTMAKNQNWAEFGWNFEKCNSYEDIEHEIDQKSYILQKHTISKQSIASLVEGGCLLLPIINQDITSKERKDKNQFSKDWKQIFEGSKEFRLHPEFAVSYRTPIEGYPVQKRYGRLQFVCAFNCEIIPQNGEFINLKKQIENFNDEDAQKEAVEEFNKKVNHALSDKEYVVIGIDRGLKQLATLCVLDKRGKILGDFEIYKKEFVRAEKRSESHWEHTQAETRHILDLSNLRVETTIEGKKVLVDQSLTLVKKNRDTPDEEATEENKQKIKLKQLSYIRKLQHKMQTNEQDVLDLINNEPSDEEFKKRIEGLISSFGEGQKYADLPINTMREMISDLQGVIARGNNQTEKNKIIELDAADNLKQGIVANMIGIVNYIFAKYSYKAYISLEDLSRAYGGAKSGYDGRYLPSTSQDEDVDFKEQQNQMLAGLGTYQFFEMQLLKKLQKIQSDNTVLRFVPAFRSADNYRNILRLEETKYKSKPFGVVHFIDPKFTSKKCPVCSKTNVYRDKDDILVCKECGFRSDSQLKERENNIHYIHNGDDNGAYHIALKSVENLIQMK

## Ade2 gRNA for Cms1 comparators ; Ade2 target
SeqID63 (WO2019/030695); S. cerevisiae 21 C
  activity (% editing efficiency): 0.2
SeqID63 (WO2019/030695); S. cerevisiae 30 C, comparable to negative control
  activity (% editing efficiency): 0.2
SuCms1; S. cerevisiae 21 C, near negative control
  activity (% editing efficiency): 0.3
SuCms1; S. cerevisiae 30 C, 3% fully edited
  activity (% editing efficiency): 5

## rpoB gRNA for Cms1 comparators ; rpoB target
SeqID63 (WO2019/030695); E. coli depletion assay 37 C
  activity (% colony reduction): 0
SuCms1; E. coli depletion assay 37 C
  activity (% colony reduction): 72

## gRNA cassette without spacer ; Ade2 target
[1]
  activity (% editing efficiency): 0.2
[2]
  activity (% editing efficiency): 0.2
[3]
  activity (% editing efficiency): 0.2
